Source: publication PMC7525151, “Fumarase From Cyanidioschyzon merolae Stably Shows High Catalytic Activity for Fumarate Hydration Under High Temperature Conditions” (Frontiers in Microbiology, 2020)

System: O=C(O)C[C@H](O)C(=O)O
Assay: purified protein
Settings: L-malate dehydration
[1] = 100 mM Tris-HCl pH 7.5, 50 °C, pH 7.5
[2] = 100 mM Tris-HCl pH 8.5, 52 °C, pH 8.5

Sequence of TeFum (Thermosynechococcus vestitus BP-1) (chain, as listed by the source): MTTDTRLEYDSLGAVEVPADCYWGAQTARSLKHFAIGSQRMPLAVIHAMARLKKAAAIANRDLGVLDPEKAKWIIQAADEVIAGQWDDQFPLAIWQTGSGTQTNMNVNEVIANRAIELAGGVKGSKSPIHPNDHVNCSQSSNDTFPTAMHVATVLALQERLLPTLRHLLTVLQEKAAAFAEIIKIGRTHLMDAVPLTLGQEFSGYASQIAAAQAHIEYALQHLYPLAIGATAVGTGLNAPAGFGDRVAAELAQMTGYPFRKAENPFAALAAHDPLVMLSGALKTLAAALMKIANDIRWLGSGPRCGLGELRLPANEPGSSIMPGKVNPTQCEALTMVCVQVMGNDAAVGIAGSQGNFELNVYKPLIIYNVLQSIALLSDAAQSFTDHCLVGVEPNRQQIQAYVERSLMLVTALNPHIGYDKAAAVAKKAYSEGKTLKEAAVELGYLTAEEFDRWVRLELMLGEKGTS
Sequence of CmFUM (Cyanidioschyzon merolae strain 10D) (chain, as listed by the source): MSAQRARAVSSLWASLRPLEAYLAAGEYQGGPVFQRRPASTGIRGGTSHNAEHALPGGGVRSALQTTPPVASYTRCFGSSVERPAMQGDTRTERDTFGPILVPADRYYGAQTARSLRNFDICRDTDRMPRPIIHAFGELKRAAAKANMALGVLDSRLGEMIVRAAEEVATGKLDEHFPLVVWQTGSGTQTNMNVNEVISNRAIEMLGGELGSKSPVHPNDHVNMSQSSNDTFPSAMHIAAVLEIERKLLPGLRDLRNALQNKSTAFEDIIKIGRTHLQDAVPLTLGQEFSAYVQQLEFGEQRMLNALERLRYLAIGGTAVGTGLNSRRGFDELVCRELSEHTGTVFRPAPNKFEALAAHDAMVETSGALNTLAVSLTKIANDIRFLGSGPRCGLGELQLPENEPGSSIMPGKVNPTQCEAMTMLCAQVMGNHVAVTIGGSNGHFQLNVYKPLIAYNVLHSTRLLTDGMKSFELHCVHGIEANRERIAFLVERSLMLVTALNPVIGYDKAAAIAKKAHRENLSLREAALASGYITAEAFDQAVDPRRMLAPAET

For “TeFum (Thermosynechococcus vestitus BP-1)”, the Km [1] was 200 ± 10 µM, the kcat [1] was 15 s⁻¹ and the kcat/Km [1] was 76000 M⁻¹ s⁻¹.

Substance “CmFUM (Cyanidioschyzon merolae strain 10D)” has a Km [2] of 1490 ± 120 µM, a kcat [2] of 244 s⁻¹ and a kcat/Km [2] of 164000 M⁻¹ s⁻¹.
